Measured values published in US20240117038A1 (Ablynx, published 2024).

B1: A041600035 (VHH)
chain: DVQLVESGGGSVQPGGSLRLSCAASGSIFSSTAMAWYRQAPGKQRDLVAVISTVGITKYADSVKGRFTISRDNAKNTVYLQMNSLRPEDTALYYCTSDARRGWDTRYWGQGTLVTVSSGGGGSGGGSEVQLVESGGGSVQPGGSLRLSCAASGSIFSSTAMAWYRQAPGKQRDLVAVISTVGITKYADSVKGRFTISRDNAKNTVYLQMNSLRPEDTALYYCTSDARRGWDTRYWGQGTLVTVSSGGGGSGGGSEVQLVESGGGVVQPGGSLRLSCAASGFTFRSFGMSWVRQAPGKGPEWVSSISGSGSDTLYADSVKGRFTISRDNSKNTLYLQMNSLRPEDTALYYCTIGGSLSRSSQGTLVTVSSA
notes: Trivalent ISVD construct (two anti-CX3CR1 ISVDs, one anti-albumin ISVD), C-terminal alanine included in the entry; also called 54A12_SO (E1D)-9GS-54A12_SO-9GS-ALB23002-A
B2: A041600085 (VHH)
chain: DVQLVESGGGLVQPGGSLRLSCAASGSIFSSTAMAWYRQAPGKRRDLVAAISTVGVTKYADSVKGRFTISRDNSKNTVYLQMNSLRPEDTAVYYCTSDPRRGWDTRYWGQGTLVTVSSGGGGSGGGSEVQLVESGGGVVQPGGSLRLSCAASGFTFRSFGMSWVRQAPGKGPEWVSSISGSGSDTLYADSVKGRFTISRDNSKNTLYLQMNSLRPEDTALYYCTIGGSLSRSSQGTLVTVSSGGGGSGGGSEVQLVESGGGLVQPGGSLRLSCAASGSIFSSTAMAWYRQAPGKRRDLVAAISTVGVTKYADSVKGRFTISRDNSKNTVYLQMNSLRPEDTAVYYCTSDPRRGWDTRYWGQGTLVTVSSA
notes: also called 307-9GS-ALB23002-9GS-307 (D1E)-A

Key:
[1] = target: T1, cynomolgus CX3CR1 (cynomolgus monkey (Macaca fascicularis), UniProt P49238 1-355 (human entry)); experiment: MSD-SET in-solution affinity on cell expressed cyno CX3CR1, 30 uM HSA, geometric mean of N = 3
T1 construct: Overexpressed on CHO K1 cells; also called cyno CX3CR1; cyCX3CR1
T1 chain: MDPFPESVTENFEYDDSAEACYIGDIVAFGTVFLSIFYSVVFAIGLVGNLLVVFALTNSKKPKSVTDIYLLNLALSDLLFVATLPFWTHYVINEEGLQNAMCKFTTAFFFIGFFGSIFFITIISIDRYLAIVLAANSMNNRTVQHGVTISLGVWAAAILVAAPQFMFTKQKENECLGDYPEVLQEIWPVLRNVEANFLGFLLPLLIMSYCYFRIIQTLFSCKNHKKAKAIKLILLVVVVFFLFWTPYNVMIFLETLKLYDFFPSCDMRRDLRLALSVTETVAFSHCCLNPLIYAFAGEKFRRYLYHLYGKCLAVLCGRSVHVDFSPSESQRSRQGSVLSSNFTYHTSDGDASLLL
Experimental: The affinity was determined on 3 independent assay occasions.

[2] = target: T2, FCGR2B (human, UniProt P31994); experiment: membrane protein array validation: flow cytometry on unfixed cells expressing the protein, serial dilutions in buffer with 10% human serum albumin, fluorescently labeled secondary antibody that binds ISVDs
T2 construct: overexpressed on live cells from an expression plasmid; Tested in the validation titration of the membrane protein array
T2 sequence (membrane protein, looked up): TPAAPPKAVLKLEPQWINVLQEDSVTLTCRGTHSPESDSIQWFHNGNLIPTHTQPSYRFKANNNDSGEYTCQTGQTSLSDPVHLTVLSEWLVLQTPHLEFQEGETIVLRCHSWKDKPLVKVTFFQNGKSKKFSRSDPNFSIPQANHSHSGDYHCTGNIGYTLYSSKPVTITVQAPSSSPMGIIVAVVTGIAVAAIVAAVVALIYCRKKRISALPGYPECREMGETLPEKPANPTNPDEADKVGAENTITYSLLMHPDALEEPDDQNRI

[3] = target: T3, DSC1; experiment: as above
T3 construct: Tested in the validation titration of the membrane protein array
T3 chain: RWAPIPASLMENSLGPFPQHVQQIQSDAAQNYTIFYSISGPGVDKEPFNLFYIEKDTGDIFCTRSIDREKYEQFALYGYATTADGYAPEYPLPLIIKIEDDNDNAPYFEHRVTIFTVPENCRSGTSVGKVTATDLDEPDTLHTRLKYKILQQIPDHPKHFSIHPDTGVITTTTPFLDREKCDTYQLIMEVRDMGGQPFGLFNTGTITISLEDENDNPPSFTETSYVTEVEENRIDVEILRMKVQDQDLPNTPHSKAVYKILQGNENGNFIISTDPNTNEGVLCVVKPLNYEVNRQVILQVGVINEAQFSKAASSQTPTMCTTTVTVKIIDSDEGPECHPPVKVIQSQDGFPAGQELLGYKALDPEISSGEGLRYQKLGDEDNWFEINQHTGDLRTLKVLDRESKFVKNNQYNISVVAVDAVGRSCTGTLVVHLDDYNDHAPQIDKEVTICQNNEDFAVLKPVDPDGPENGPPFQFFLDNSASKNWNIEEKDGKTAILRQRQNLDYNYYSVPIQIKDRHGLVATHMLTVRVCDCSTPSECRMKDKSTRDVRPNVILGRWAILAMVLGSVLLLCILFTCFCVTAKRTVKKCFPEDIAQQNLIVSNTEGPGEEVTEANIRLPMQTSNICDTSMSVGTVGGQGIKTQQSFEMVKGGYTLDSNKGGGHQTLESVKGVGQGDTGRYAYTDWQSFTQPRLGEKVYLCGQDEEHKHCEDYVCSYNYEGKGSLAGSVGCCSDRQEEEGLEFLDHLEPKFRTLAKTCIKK

[4] = target: T4, DCC (human, UniProt P43146); experiment: as above
T4 construct: overexpressed on live cells from an expression plasmid; Tested in the validation titration of the membrane protein array
T4 sequence (P43146 26-1447 limits assumed): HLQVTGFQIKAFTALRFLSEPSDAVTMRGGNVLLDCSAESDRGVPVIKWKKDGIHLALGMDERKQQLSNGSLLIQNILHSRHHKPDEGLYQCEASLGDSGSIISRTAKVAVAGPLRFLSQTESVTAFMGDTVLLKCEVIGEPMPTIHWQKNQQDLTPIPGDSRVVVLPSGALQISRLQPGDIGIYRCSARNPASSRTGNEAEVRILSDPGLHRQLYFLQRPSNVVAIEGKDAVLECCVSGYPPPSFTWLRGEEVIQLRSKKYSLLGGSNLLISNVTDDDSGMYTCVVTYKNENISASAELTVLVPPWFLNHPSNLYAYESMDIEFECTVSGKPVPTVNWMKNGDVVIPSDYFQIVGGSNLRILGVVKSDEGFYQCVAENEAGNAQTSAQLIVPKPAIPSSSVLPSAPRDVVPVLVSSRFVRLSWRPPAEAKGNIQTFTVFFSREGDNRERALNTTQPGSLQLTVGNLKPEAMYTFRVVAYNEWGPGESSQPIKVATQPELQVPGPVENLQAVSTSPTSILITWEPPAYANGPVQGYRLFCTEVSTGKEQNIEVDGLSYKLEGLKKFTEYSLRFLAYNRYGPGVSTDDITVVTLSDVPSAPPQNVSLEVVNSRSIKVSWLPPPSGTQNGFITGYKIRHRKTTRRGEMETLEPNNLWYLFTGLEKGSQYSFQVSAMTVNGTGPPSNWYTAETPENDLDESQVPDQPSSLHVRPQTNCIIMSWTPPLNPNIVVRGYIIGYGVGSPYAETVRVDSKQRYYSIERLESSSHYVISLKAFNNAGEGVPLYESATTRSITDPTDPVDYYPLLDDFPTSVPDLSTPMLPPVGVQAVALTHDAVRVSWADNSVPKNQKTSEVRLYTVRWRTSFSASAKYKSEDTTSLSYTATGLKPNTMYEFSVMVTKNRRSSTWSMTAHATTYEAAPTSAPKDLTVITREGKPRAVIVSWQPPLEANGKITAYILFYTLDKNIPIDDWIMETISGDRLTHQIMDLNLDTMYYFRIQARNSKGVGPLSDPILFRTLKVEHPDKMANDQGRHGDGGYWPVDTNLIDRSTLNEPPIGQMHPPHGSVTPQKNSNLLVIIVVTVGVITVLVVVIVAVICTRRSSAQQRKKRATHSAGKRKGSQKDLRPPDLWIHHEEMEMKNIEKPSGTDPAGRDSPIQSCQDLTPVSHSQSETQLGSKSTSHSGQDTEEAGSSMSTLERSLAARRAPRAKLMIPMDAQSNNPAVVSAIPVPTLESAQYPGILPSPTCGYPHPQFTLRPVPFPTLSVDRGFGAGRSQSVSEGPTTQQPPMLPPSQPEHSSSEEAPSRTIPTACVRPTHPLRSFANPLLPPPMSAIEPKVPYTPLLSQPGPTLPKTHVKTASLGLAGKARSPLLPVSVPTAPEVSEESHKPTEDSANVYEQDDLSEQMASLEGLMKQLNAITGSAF

[5] = target: T5, human CX3CR1 (human, UniProt P49238 1-355); experiment: cell-based or functional assay
T5 sequence: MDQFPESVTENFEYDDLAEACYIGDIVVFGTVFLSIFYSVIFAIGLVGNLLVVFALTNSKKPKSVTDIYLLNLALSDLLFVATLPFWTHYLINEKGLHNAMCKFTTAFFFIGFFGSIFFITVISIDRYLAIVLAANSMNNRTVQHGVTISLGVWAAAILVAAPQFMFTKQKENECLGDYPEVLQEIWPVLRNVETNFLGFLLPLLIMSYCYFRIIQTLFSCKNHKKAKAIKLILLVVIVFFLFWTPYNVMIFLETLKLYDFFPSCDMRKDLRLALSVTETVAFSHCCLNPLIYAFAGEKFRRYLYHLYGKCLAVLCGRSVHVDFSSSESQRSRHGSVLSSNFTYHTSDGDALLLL

[6] = target: T1, cynomolgus CX3CR1; experiment: flow cytometry on CHO K1 cells; tied to A041600085 by Table B-4 (5.6E-10 against 1.7E-10)
Experimental: CHO cells overexpressing human or cynomolgus CX3CR1 were generated using techniques known in the art. Cells were harvested and resuspended in assay buffer (PBS, 2% FBS, 0.05% NaN3) and seeded separately in 384-well Bio-One V-bottom plates (Greiner, Cat. No. 781280), with a total of 2E04 cells seeded per well. After washing, serial dilutions of multivalent ISVD construct (starting from 250 nM, 3-fold dilution, 11 points, diluted in assay buffer), were added and incubated for 4 hours at 4° C. Binding was performed in the presence of 30 uM HSA (Sigma-Aldrich, Cat. No. A8763). Plates were then washed 3 times and cells were incubated with an anti-VHH mouse antibody (3300-fold diluted in assay buffer) for 30 minutes at 4′° C. […] Plates were finally washed 3 times and cells were resuspended in PI (Miltenyi Biotec, Cat. No. 130-093-233, 1000-fold diluted in assay buffer). Cell suspensions were analyzed with iQue Screener PLUS (Intellicyt). EC50s were estimated by dose response modelling. Curves were fit using 4 parameter logistic regression in GraphPad (GraphPad Software Inc.). A purified anti-human CX3CR1 antibody [K0124E1] (BioLegend, Cat. No. 355701/355702) was used as positive control to detect CX3CR1 expression on the cell surface.

| Binder | Kd [1] [nM] | binding result [2] | binding result [3] | binding result [4] | fold inhibition of monocyte migration (A041600035 VS IRR VHH), healthy, CD16+ monocytes [5] [fold] | fold inhibition of monocyte migration (A041600035 VS IRR VHH), healthy, CD16- monocytes [5] [fold] | fold inhibition of monocyte migration (A041600035 VS IRR VHH), healthy, total monocytes [5] [fold] | fold inhibition of monocyte migration (A041600035 VS IRR VHH), lupus nephritis, CD16+ monocytes [5] [fold] | fold inhibition of monocyte migration (A041600035 VS IRR VHH), lupus nephritis, CD16- monocytes [5] [fold] | fold inhibition of monocyte migration (A041600035 VS IRR VHH), lupus nephritis, total monocytes [5] [fold] | fold difference in EC50 (cyno CX3CR1 against human CX3CR1) [6] [fold] |
| --- | --- | --- | --- | --- | --- | --- | --- | --- | --- | --- | --- |
| B1 | 0.11 | no binding (tested: 20 ug/ml) | no binding (tested: 20 ug/ml) | no binding (tested: 20 ug/ml) | 2.34 | 1.5 | 1.82 | 1.9 | 1.71 | 1.71 |  |
| B2 |  |  |  |  |  |  |  |  |  |  | 3.3 |
